PMC7418854 (Journal for Immunotherapy of Cancer, 2020)
Changes are numbered by the printed parent chain. Names and notes keep the numbering of the source. Each block holds one binder with its values, some of them ahead of it.

How the values were obtained:
[1] = target: T1, recombinant LILRB1 (Homo sapiens, UniProt Q8NHL6); assay: BLI
[2] = target: T1, recombinant LILRB1; assay: BLI + ELISA
[3] = target: T1, recombinant LILRB1; assay: ELISA

T1 sequence (Q8NHL6 24-461): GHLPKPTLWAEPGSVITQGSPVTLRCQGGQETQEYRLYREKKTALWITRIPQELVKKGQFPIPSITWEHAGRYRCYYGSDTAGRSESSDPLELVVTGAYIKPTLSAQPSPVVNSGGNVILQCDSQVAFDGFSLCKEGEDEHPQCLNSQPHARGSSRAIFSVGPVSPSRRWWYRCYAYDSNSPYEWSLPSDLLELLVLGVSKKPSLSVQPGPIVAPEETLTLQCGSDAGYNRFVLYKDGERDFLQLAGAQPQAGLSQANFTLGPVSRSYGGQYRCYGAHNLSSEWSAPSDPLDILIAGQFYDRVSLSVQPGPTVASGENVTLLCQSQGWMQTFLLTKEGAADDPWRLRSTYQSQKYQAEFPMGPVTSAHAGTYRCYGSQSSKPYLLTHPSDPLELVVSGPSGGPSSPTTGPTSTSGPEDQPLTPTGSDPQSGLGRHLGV

B2: humanized anti-LILRB1 antibody Hu B1-176-N297A (antibody, V domains shown)
VH: EVQLVESGGGLVQPGGSLRLSCAASGFSFSSSYCMCWVRQAPGKGLELVSCIYTDSSGATYYASWAKGRFTISRHNSKNTLYLQMNSLRAEDTAVYYCARGWDYEDPGYTDTTYFSLWGRGTLVTVSS
VL: DIQLTQSPSFLSASVGDRVTITCQASQTIYTNLAWYQQKPGKAPKLLIYAASTLASGVPSRFSGSGSGTEFTLTISSLQPEDFATYYCQSYYGSSTTGNGFGGGTKVEIK
binding result [2]: binds

B3: humanized B1-176 with heavy chain Hu-176 VH-1 and light chain Hu-176 VL (antibody, V domains shown)
VH: B2 VH with L48W
VL: B2 VL
binding result [3]: binds

B4: humanized anti-LILRB1 antibody Hu B1-176-LALAPG (antibody, V domains shown)
VH: B2 VH
VL: B2 VL
binding result [2]: binds

Further lines, results first:

Kd [1]: ~0.01 nM
B1: rabbit anti-LILRB1 monoclonal antibody B1-176 (antibody, V domains shown)
VH: QSLEESEGGLVKPGGTLTLTCTASGFSFSSSYCMCWVRQAPGKGLELIACIYTDSSGATYYASWAKGRFTISKSSSTTITLQMTSLTAADTATYFCARGWDYEDPGYTDTTYFSLWGPGTLVTVSS
VL: ELDLTQTPSSVEAAVGGTVTIKCQASQTIYTNLAWYQQKPGQPPNLLIYAASTLASGVSSRFKGSGSGTEFTLTISDLECADAATYYCQSYYGSSTTGNGFGGGTEVEIK

binding result [3]: binds
B5: humanized B1-176 with heavy chain Hu-176 VH-2 (W48L), as tested in Figure 3B (antibody, V domains shown)
VH: B2 VH
VL: B2 VL
